From publication PMC9378516 (Journal of molecular biology, 2022)

Biological target: the molecule itself
Assay: AUC

B1: TRF2 (hTERF2), full-length construct, residues 5-542 (natural protein, human, UniProt Q15554-3 5-542, looked up)
chain: AGTAGPASGPGVVRDPAASQPRKRPGREGGEGARRSDTMAGGGGSSDGSGRAAGRRASRSSGRARRGRHEPGLGGPAERGAGEARLEEAVNRWVLKFYFHEALRAFRGSRYGDFRQIRDIMQALLVRPLGKEHTVSRLLRVMQCLSRIEEGENLDCSFDMEAELTPLESAINVLEMIKTEFTLTEAVVESSRKLVKEAAVIICIKNKEFEKASKILKKHMSKDPTTQKLRNDLLNIIREKNLAHPVIQNFSYETFQQKMLRFLESHLDDAEPYLLTMAKKALKSESAASSTGKEDKQPAPGPVEKPPREPARQLRNPPTTIGMMTLKAAFKTLSGAQDSEAAFAKLDQKDLVLPTQALPASPALKNKRPRKDENESSAPADGEGGSELQPKNKRMTISRLVLEEDSQSTEPSAGLNSSQEAASAPPSKPTVLNQPLPGEKNPKVPKGKWNSSNGVEEKETWVEEDELFQVQAAPDEDSTTNITKKQKWTVEESEWVKAGVQKYGEGNWAAISKNYPFVNRTAVMIKDRWRTMKRLGMN
Q: With B1 as the protein, how does the “stoichiometry N” value read?
A: Its value is 2.
